We go through three substances from patent US20250268994A1.

For this assay, the target named is delta (India) variant S glycoprotein of SARS-CoV-2 (SARS-CoV-2) (UniProt P0DTC2). The assay is described as follows: cell-based or functional assay.
As to “hsACE2 N90D T92A (variant polypeptide encoded by SEQ ID NO: 5) (from UniProt Q9BYF1 18-740) (receptor)”, the Preliminary Estimate of IC50 (nM), RVP neutralization was 2.33 nM.

For “hsACE2 H374N H378N (variant polypeptide encoded by SEQ ID NO: 6) (from UniProt Q9BYF1 18-740) (receptor)”, the Preliminary Estimate of IC50 (nM), RVP neutralization is 8.29 nM.

As for “hsACE2 N90D R273A (variant polypeptide encoded by SEQ ID NO: 4) (from UniProt Q9BYF1 18-740) (receptor)”, the Preliminary Estimate of IC50 (nM), RVP neutralization is 2.74 nM.
